Laboratory results taken from patent US20250188146A1.

What was measured:
CD19 = CD19 (UniProt P15391); assay: cell-based or functional assay
[1] = target: CLDN18.2 on KATO III-18.2+ cells (UniProt P56856); assay: cell-based or functional assay

Sequence of CD19 (P15391 20-556 limits assumed): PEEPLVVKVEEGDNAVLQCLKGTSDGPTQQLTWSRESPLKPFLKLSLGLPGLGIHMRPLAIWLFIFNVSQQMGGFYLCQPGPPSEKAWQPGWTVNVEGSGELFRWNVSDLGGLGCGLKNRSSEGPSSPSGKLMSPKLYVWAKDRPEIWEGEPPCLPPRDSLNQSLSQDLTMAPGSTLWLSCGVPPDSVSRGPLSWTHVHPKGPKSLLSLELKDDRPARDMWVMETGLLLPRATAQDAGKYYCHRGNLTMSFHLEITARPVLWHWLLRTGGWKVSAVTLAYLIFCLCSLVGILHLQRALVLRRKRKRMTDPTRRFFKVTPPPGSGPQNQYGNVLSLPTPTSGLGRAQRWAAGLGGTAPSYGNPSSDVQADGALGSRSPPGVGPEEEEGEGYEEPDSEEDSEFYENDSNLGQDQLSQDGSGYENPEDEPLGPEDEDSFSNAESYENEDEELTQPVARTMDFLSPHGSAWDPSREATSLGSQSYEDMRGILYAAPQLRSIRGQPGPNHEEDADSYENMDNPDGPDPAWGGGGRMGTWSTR

B1: CD19 CAR with humanized CD19 scFv (binding domain SEQ ID NO: 5) (protein, not shown: a dimerising Fc or GST)
chain: DIQMTQSPSSLSASVGDRVTITCRASQDISKYLNWYQQKPGKAPKLLIYHTSRLHSGVPSRFSGSGSGTDFTLTISSLQPEDFATYYCQQGNTLPYTFGQGTKVEIKGGGGSGGGGSGGGGSEVQLVESGGGLVQPGGSLRLSCAASGVSLPDYGVSWVRQAPGKGLEWVSVIWGSETTYYNSALKSRFTISRDNAKNSLYLQMNSLRAEDTAVYYCAKHYYYGGSYAMDYWGQGTLVTVSS
CD25, hCAR+ cells; K19 co-culture 24 h; PBMC+, IL6+, IL15- (CD19): 48.3% | CD25, hCAR+ cells; K19 co-culture 24 h; PBMC+, IL6-, IL15- (CD19): 53% | CD25, hCAR+ cells; K19 co-culture 24 h; PBMC-, IL6+, IL15- (CD19): 52.3% | CD25, hCAR+ cells; K19 co-culture 24 h; PBMC-, IL6-, IL15+ (CD19): 57.1% | CD25, hCAR+ cells; K19 co-culture 24 h; PBMC-, IL6-, IL15- (CD19): 53.1% | CD25, hCAR+ cells; K19 co-culture 48 h; PBMC+, IL6+, IL15- (CD19): 34.2% | CD25, hCAR+ cells; K19 co-culture 48 h; PBMC+, IL6-, IL15- (CD19): 35.8% | CD25, hCAR+ cells; K19 co-culture 48 h; PBMC-, IL6+, IL15- (CD19): 39.1% | CD25, hCAR+ cells; K19 co-culture 48 h; PBMC-, IL6-, IL15+ (CD19): 43.4% | CD25, hCAR+ cells; K19 co-culture 48 h; PBMC-, IL6-, IL15- (CD19): 41.5% | CD25 MFI, hCAR+ cells; K19 co-culture 24 h; PBMC+, IL6+, IL15- (CD19): 6740 MFI | CD25 MFI, hCAR+ cells; K19 co-culture 24 h; PBMC+, IL6-, IL15- (CD19): 7080 MFI | CD25 MFI, hCAR+ cells; K19 co-culture 24 h; PBMC-, IL6+, IL15- (CD19): 6480 MFI | CD25 MFI, hCAR+ cells; K19 co-culture 24 h; PBMC-, IL6-, IL15+ (CD19): 6060 MFI | CD25 MFI, hCAR+ cells; K19 co-culture 24 h; PBMC-, IL6-, IL15- (CD19): 6200 MFI | CD25 MFI, hCAR+ cells; K19 co-culture 48 h; PBMC+, IL6+, IL15- (CD19): 11200 MFI | CD25 MFI, hCAR+ cells; K19 co-culture 48 h; PBMC+, IL6-, IL15- (CD19): 11800 MFI | CD25 MFI, hCAR+ cells; K19 co-culture 48 h; PBMC-, IL6+, IL15- (CD19): 12300 MFI | CD25 MFI, hCAR+ cells; K19 co-culture 48 h; PBMC-, IL6-, IL15+ (CD19): 11400 MFI | CD25 MFI, hCAR+ cells; K19 co-culture 48 h; PBMC-, IL6-, IL15- (CD19): 11100 MFI | CD137, hCAR+ cells; K19 co-culture 24 h; PBMC+, IL6+, IL15- (CD19): 35.6% | CD137, hCAR+ cells; K19 co-culture 24 h; PBMC+, IL6-, IL15- (CD19): 39.9% | CD137, hCAR+ cells; K19 co-culture 24 h; PBMC-, IL6+, IL15- (CD19): 55.8% | CD137, hCAR+ cells; K19 co-culture 24 h; PBMC-, IL6-, IL15+ (CD19): 62.1% | CD137, hCAR+ cells; K19 co-culture 24 h; PBMC-, IL6-, IL15- (CD19): 57.4% | CD137, hCAR+ cells; K19 co-culture 48 h; PBMC+, IL6+, IL15- (CD19): 28% | CD137, hCAR+ cells; K19 co-culture 48 h; PBMC+, IL6-, IL15- (CD19): 47.1% | CD137, hCAR+ cells; K19 co-culture 48 h; PBMC-, IL6+, IL15- (CD19): 57.6% | CD137, hCAR+ cells; K19 co-culture 48 h; PBMC-, IL6-, IL15+ (CD19): 58.6% | CD137, hCAR+ cells; K19 co-culture 48 h; PBMC-, IL6-, IL15- (CD19): 57.3% | CD137MFI, hCAR+ cells; K19 co-culture 24 h; PBMC+, IL6+, IL15- (CD19): 18100 MFI | CD137MFI, hCAR+ cells; K19 co-culture 24 h; PBMC+, IL6-, IL15- (CD19): 19000 MFI | CD137MFI, hCAR+ cells; K19 co-culture 24 h; PBMC-, IL6+, IL15- (CD19): 23400 MFI | CD137MFI, hCAR+ cells; K19 co-culture 24 h; PBMC-, IL6-, IL15+ (CD19): 25500 MFI | CD137MFI, hCAR+ cells; K19 co-culture 24 h; PBMC-, IL6-, IL15- (CD19): 26800 MFI | CD137MFI, hCAR+ cells; K19 co-culture 48 h; PBMC+, IL6+, IL15- (CD19): 43000 MFI | CD137MFI, hCAR+ cells; K19 co-culture 48 h; PBMC+, IL6-, IL15- (CD19): 24800 MFI | CD137MFI, hCAR+ cells; K19 co-culture 48 h; PBMC-, IL6+, IL15- (CD19): 51500 MFI | CD137MFI, hCAR+ cells; K19 co-culture 48 h; PBMC-, IL6-, IL15+ (CD19): 51900 MFI | CD137MFI, hCAR+ cells; K19 co-culture 48 h; PBMC-, IL6-, IL15- (CD19): 52600 MFI | CD137 expression of CAR T CD8+ cells, co-culture 48 h with Nalm-6 (CD19): 11.1% | IFN-γ release, background subtracted; K19 co-culture 24 h; PBMC+, IL6+, IL15- (CD19): 64300 | IFN-γ release, background subtracted; K19 co-culture 24 h; PBMC+, IL6-, IL15- (CD19): 64800 | IFN-γ release, background subtracted; K19 co-culture 24 h; PBMC-, IL6+, IL15- (CD19): 19200 | IFN-γ release, background subtracted; K19 co-culture 24 h; PBMC-, IL6-, IL15+ (CD19): 21300 | IFN-γ release, background subtracted; K19 co-culture 24 h; PBMC-, IL6-, IL15- (CD19): 16000 | IFN-γ release, background subtracted; K19 co-culture 48 h; PBMC+, IL6+, IL15- (CD19): 152000 | IFN-γ release, background subtracted; K19 co-culture 48 h; PBMC+, IL6-, IL15- (CD19): 160000 | IFN-γ release, background subtracted; K19 co-culture 48 h; PBMC-, IL6+, IL15- (CD19): 120000 | IFN-γ release, background subtracted; K19 co-culture 48 h; PBMC-, IL6-, IL15+ (CD19): 134000 | IFN-γ release, background subtracted; K19 co-culture 48 h; PBMC-, IL6-, IL15- (CD19): 114000

B2: 18.2 CAR (protein, part only; not given: Hinge, transmembrane and signaling domains, part only)
chain, part: DIVMTQSPSSLTVTAGEKVTMSCKSSQSLLNSGNQKNYLTWYQQKPGQPPKLLIYWASTRESGVPDRFTGSGSGTDFTLTISSVQAEDLAVYYCQNDYSYPFTFGSGTKLEIKGGGGSGGGGSGGGGSQVQLQQPGAELVRPGASVKLSCKASGYTFTSYWINWVKQRPGQGLEWIGNIYPSDSYTNYNQKFKDKATLTVDKSSSTAYMQLSSPTSEDSAVYYCTRSWRGNSFDYWGQGTTLTVSS
CD137 expression of CAR T CD8+ cells, co-culture 48 h with KATO III-18.2+ [1]: 8.77%
